56 variants from the RNAGym collection of RNA variant scans (doi:10.7554/elife.90254) can be followed below.

First the molecules themselves.
B1: LINE1-mini (parent)
chain: GGCAGAGCUCAACACAGCGUGGCAAAGUGGCUGUGGCUAGACUGCC

Variants of B1 are the subject of this series. Kind of series: self-cleavage, relative activity (ratio to wild type); higher = more cleavage; in vitro, sequencing; the parent is a self-cleaving ribozyme.
In the case of GGCAGAGCUCAACACAGCGUCGCAAAGUGGCUGUGGCUAGACUGUC [G21C C45U], the self-cleavage amounted to 1.56.
The result for GGCAGAGCUCAACACAGCGUCGCAAAGUGGCUGUGGCUAGACUGGC [G21C C45G] reads 0.07; that for GGCAGAGCUCAACACAGCGUCGCAAAGUGGCUGUGGGUAGACUGCC [G21C C37G], 0.05; that for GGCAGAGCUCAACACAGCGUCGCAAAGUGGCUGUGGAUAGACUGCC [G21C C37A], 0.02.
The result for GGCAGAGCUCAACACAGCGUCGCAAAGUGGCUGUGGUUAGACUGCC [G21C C37U] reads 0.01; that for GGCAGAGCUCAACACAGCGUCGCAAAGUGGCUGUGCCUAGACUGCC [G21C G36C], 0.03.
The result for GGCAGAGCUCAACACAGCGUCGCAAAGUGGCUGUGUCUAGACUGCC [G21C G36U] reads 0.03; that for GGCAGAGCUCAACACAGCGUCGCAAAGUGGCUGUGACUAGACUGCC [G21C G36A], 0.1; that for GGCAGAGCUCAACACAGCGUUGCAAAGUGGCUGUGGCUAGAAUGCC [G21U C42A], 0.23.
GGCAGAGCUCAACACAGCGUUGCAAAGUGGCUGUGGCUAGAUUGCC [G21U C42U]: the self-cleavage is 0.53.
In the case of GGCAGAGCUCAACACAGCGUUGCAAAGUGGCUGUGGCUAGAGUGCC [G21U C42G], the self-cleavage turned out to be 0.04.
As for GGCAGAGCUCAACACAGCGUUUCAAAGUGGCUGUGGCUAGACUGCC [G21U G22U], the self-cleavage came to 1.4.
The result for GGCAGAGCUCAACACAGCGUUCCAAAGUGGCUGUGGCUAGACUGCC [G21U G22C] reads 1.71; that for GGCAGAGCUCAACACAGCGUUACAAAGUGGCUGUGGCUAGACUGCC [G21U G22A], 1.03.
The result for GGCAGAGCUCAACACAGCGUCGCAAAAUGGCUGUGGCUAGACUGCC [G21C G27A] reads 0.84; that for GGCAGAGCUCAACACAGCGUCGCAAACUGGCUGUGGCUAGACUGCC [G21C G27C], 0.52.
The result for GGCAGAGCUCAACACAGCGUCGCAAAUUGGCUGUGGCUAGACUGCC [G21C G27U] reads 0.84; that for GGCAGAGCUCAACACAGCGUUGGAAAGUGGCUGUGGCUAGACUGCC [G21U C23G], 0.9; that for GGCAGAGCUCAACACAGCGUUGUAAAGUGGCUGUGGCUAGACUGCC [G21U C23U], 1.38.
Turning to GGCAGAGCUCAACACAGCGUUGAAAAGUGGCUGUGGCUAGACUGCC [G21U C23A], the self-cleavage came to 1.24.
The result for GGCAGAGCUCAACACAGCGUCCCAAAGUGGCUGUGGCUAGACUGCC [G21C G22C] reads 0.57; that for GGCAGAGCUCAACACAGCGUCACAAAGUGGCUGUGGCUAGACUGCC [G21C G22A], 0.48; that for GGCAGAGCUCAACACAGCGUCUCAAAGUGGCUGUGGCUAGACUGCC [G21C G22U], 0.46.
For GGCAGAGCUCAACACAGCGUUGCAAAGUGGCUGUGGCUAGACUGCG [G21U C46G], the self-cleavage worked out at 1.29.
The result for GGCAGAGCUCAACACAGCGUUGCAAAGUGGCUGUGGCUAGACUGCU [G21U C46U] reads 1.13; that for GGCAGAGCUCAACACAGCGUUGCAAAGUGGCUGUGGCUAGACUGCA [G21U C46A], 1.14.
Take GGCAGAGCUCAACACAGCGUCGCAAAGUGGCUGUGGCUAGACUGCG [G21C C46G]: the self-cleavage is 0.51.
The result for GGCAGAGCUCAACACAGCGUCGCAAAGUGGCUGUGGCUAGACUGCU [G21C C46U] reads 0.83; that for GGCAGAGCUCAACACAGCGUCGCAAAGUGGCUGUGGCUAGACUGCA [G21C C46A], 1.13; that for GGCAGAGCUCAACACAGCGUCGCAAAGUGGCUGUGGCUAGACUCCC [G21C G44C], 0.4.
The result for GGCAGAGCUCAACACAGCGUCGCAAAGUGGCUGUGGCUAGACUACC [G21C G44A] reads 0.34; that for GGCAGAGCUCAACACAGCGUCGCAAAGUGGCUGUGGCUAGACUUCC [G21C G44U], 0.28.
The figure for GGCAGAGCUCAACACAGCGUUGCAAAGUGGCUGUGGCUAGACUGCC [G21U] is 1.06.
Consider GGCAGAGCUCAACACAGCGUCGCAAAGCGGCUGUGGCUAGACUGCC [G21C U28C], for which the self-cleavage was 1.39.
The result for GGCAGAGCUCAACACAGCGUCGCAAAGGGGCUGUGGCUAGACUGCC [G21C U28G] reads 0.45; that for GGCAGAGCUCAACACAGCGUCGCAAAGAGGCUGUGGCUAGACUGCC [G21C U28A], 0.3.
The figure for GGCAGAGCUCAACACAGCGUCGCAAAGUGGCUGUGGCUAGCCUGCC [G21C A41C] is 0.07; for GGCAGAGCUCAACACAGCGUCGCAAAGUGGCUGUGGCUAGUCUGCC [G21C A41U] it is 0.5; for GGCAGAGCUCAACACAGCGUCGCAAAGUGGCUGUGGCUAGGCUGCC [G21C A41G] it is 0.32.
The result for GGCAGAGCUCAACACAGCGUUGCAAAGUGGCUAUGGCUAGACUGCC [G21U G33A] reads 0.26; that for GGCAGAGCUCAACACAGCGUUGCAAAGUGGCUCUGGCUAGACUGCC [G21U G33C], 0.08.
Turning to GGCAGAGCUCAACACAGCGUUGCUAAGUGGCUGUGGCUAGACUGCC [G21U A24U], the self-cleavage is 1.01.
The figure for GGCAGAGCUCAACACAGCGUUGCGAAGUGGCUGUGGCUAGACUGCC [G21U A24G] is 1.37; for GGCAGAGCUCAACACAGCGUUGCCAAGUGGCUGUGGCUAGACUGCC [G21U A24C] it is 0.51; for GGCAGAGCUCAACACAGCGUUGCAAACUGGCUGUGGCUAGACUGCC [G21U G27C] it is 0.54.
Turning to GGCAGAGCUCAACACAGCGUUGCAAAAUGGCUGUGGCUAGACUGCC [G21U G27A], the self-cleavage was 0.45.
For the variant GGCAGAGCUCAACACAGCGUUGCAAAUUGGCUGUGGCUAGACUGCC [G21U G27U], the self-cleavage was determined as 0.54.
The figure for GGCAGAGCUCAACACAGCGUCGCAAAGUGACUGUGGCUAGACUGCC [G21C G30A] is 1.86.
As to GGCAGAGCUCAACACAGCGUCGCAAAGUGCCUGUGGCUAGACUGCC [G21C G30C], the self-cleavage is 1.62.
The result for GGCAGAGCUCAACACAGCGUCGCAAAGUGUCUGUGGCUAGACUGCC [G21C G30U] reads 1.1.
The figure for GGCAGAGCUCAACACAGCGUUGCAAAGUGGCUGUGGCUGGACUGCC [G21U A39G] is 0.08; for GGCAGAGCUCAACACAGCGUUGCAAAGUGGCUGUGGCUCGACUGCC [G21U A39C] it is 0.28.
The result for GGCAGAGCUCAACACAGCGUUGCAAAGUGGCUGUGGCUUGACUGCC [G21U A39U] reads 0.63.
Consider GGCAGAGCUCAACACAGCGUCGCAAAGUGGCCGUGGCUAGACUGCC [G21C U32C], for which the self-cleavage turned out to be 1.82.
The figure for GGCAGAGCUCAACACAGCGUCGCAAAGUGGCAGUGGCUAGACUGCC [G21C U32A] is 0.13; for GGCAGAGCUCAACACAGCGUCGCAAAGUGGCGGUGGCUAGACUGCC [G21C U32G] it is 0.23.
